# Data as given in patent CN108948193A (SHANGHAI JIANXIN BIOPHARMACEUTICALS LLC, dated 2018).
# Positions count from the first letter of the chain named. Where “and” joins values, the source holds several entries; their conditions need not be identical. Equal values may be shown once.
# B1: mab5 (mouse hybridoma clone 6F3, murine anti-human TIM-3 monoclonal antibody) (antibody, V domains shown)
# VH: EVKLVESEGGLVQPGGSMKLSCTASGFTFSDYYMAWVRQVPEKGLEWVANINYDGSNTYYLDSLKSRFIISRDNVKNILYLQMSSLKSEDTATYYCARGLYYYGGNYFAYWGQGTLVTVSA
# VL: DILMTQSPSSMSVSLGDTVTITCHASQGISSNIGWLQQKPGKSFKGLIYQGSNLEDGVPSRFSGSGSGADYSLTISSLEYEDFADYYCVQFAQFPPTFGAGTKLELK
# B2: mab5-c (chimeric anti-human TIM-3 antibody, human IgG4-κ) (antibody, V domains shown)
# VH: B1 VH
# VL: DILMTQSPSSMSVSLGDTVTITCHASQGISSNIGWLQQKPGKSFKGLIYQGSNLEDGVPSRFSGSGSGADYSLTISSLEYEDFADYYCVQFAQFPPTFGAGTKLELKR
# notes: Mouse mab5 variable regions on human IgG4 / kappa constant regions; expressed in HEK293E; also called 嵌合抗体mab5-c
# B3: 对照抗体 ABTIM3 (reference anti-TIM-3 antibody, sequence from WO2015117002A1) (antibody, V domains shown)
# VH: QVQLQQPGAELVKPGASVKMSCKASGYTFTSYNMHWIKQTPGQGLEWIGDIYPGNGDTSYNQKFKGKATLTADKSSSTVYMQLSSLTSEDSAVYYCARVGGAFPMDYWGQGTSVTVSS
# VL: DIVLTQSPASLAVSLGQRATISCRASESVEYYGTSLMQWYQQKPGQPPKLLIYAASNVESGVPARFSGSGSGTDFSLNIHPVEEDDIAIYFCQQSRKDPSTFGGGTKLEIK
# B4: 人源化ab8抗体 (humanized anti-TIM-3 antibody ab8) (antibody, IgG4, V domains shown)
# VH: EVQLVESGGGLVKPGGSLRLSCAASGFTFSDYYMAWVRQAPGKGLEWVANINYDGSNTYYLDSLKSRFTISRDNAKNSLYLQMNSLRAEDTAVYYCARGLYYYGGNYFAYWGQGTLVTVSS
# VL: DIQMTQSPSSLSASVGDRVTITCHASQGISSNIGWLQQKPGKAFKGLIYQGSNLEDGVPSRFSGSGSGTDYTLTISSLQPEDFATYYCVQFAQFPPTFGQGTKLEIKR
# notes: Humanized mab5; human kappa / IgG4
# B5: 人源化ab6抗体 (humanized anti-TIM-3 antibody ab6) (antibody, human IgG4 S228P, kappa, V domains shown)
# VH: B4 VH
# VL: B4 VL with T69A
# notes: as for B4
# B6: 人源化ab7抗体 (humanized anti-TIM-3 antibody ab7) (antibody, human IgG4 S228P, kappa, V domains shown)
# VH: B4 VH
# VL: B4 VL with Y71F
# notes: as for B4
# What was measured:
# [1] = molecular target: TIM3-hFc (human TIM-3 Fc fusion, 货号 TM3-H5258, 北京百普赛斯生物科技有限公司) (human) (UniProt Q8TDQ0); assay: ELISA, hybridoma supernatant on TIM3-hFc captured by anti-hFc
# [2] = molecular target: human TIM-3 on human blood cells (PBMC / NK cells / activated T cells) (human, UniProt Q8TDQ0 22-301); assay: cell-based or functional assay
# [3] = molecular target: T1, TIM3-hFc (human TIM-3 Fc fusion, 货号 TM3-H5258, 北京百普赛斯生物科技有限公司) (human, UniProt Q8TDQ0 22-200); assay: ELISA on TIM3-hFc captured by anti-hFc
# T1 construct: also called 人TIM-3; 人TIM-3抗原; not shown: human Fc (hFc) of the bought fusion
# [4] = molecular target: T2, 人Tim-3 (antigen used as analyte in Biacore) (human, UniProt Q8TDQ0 22-200); assay: SPR, Biacore T200, antibody captured by Protein A on CM5, TIM-3 as analyte, 1:1 Langmuir
# T2 construct: Soluble antigen flowed at 0-30 nM over antibody captured by Protein A; also called 抗原TIM-3
binder,measurement,setting,value
B1,ELISA 数值(OD450),[1],1.73 OD450
B2,killing activity relative to the reference antibody ABTIM3 (fold),[2],2.8 倍 (fold)
same,EC50,[3],0.107 nM and 0.06 nM
same,Kd,[4],1.76 nM
same,koff,[4],0.00244 s⁻¹
same,kon,[4],1.39e+06 M⁻¹ s⁻¹
B3,EC50,[3],0.245 nM and 0.13 nM
B4,EC50,[3],0.131 nM
B5,killing of tumour cells by PBMC/NK cells relative to the reference antibody (fold),[2],≥ 2 倍 (fold)
same,EC50,[3],0.159 nM
B6,EC50,[3],0.154 nM
